In publication PMC2970552, “Structural Studies of the Tandem Tudor Domains of Fragile X Mental Retardation Related Proteins FXR1 and FXR2” (PLoS ONE, 2010):
Where no end group is shown, it is not given here. Me3 = trimethyl-lysine (Kme3); Me2 = dimethyl-lysine (Kme2)

Tests used:
[1] = target: FXR2 Tudor domains (Homo sapiens, UniProt P51116); assay: Fluorescence polarization binding of histone peptides to FXR2 tandem Tudor domains; conditions: bound printed in mM in the cell, fluoresceinated peptide 100 nM, 20 mM Tris-Cl pH 8.0, 50 mM NaCl, 1 mM DTT, 30 min room temperature
[2] = target: FXR1 Tudor domains (Homo sapiens, UniProt P51114); assay: Fluorescence polarization binding of histone peptides to FXR1 tandem Tudor domains; conditions: bound printed in mM in the cell, fluoresceinated peptide 100 nM, 20 mM Tris-Cl pH 8.0, 50 mM NaCl, 1 mM DTT, 30 min room temperature
[3] = target: T1, FXR1 tandem Tudor domains (amino acids 2 to 132 of Fragile X Mental Retardation Syndrome-related Protein 1) (UniProt P51114 2-132); assay: fluorescence polarisation; fluoresceinated peptide at 100 nM; FXR1 (stock 1.03 mM) or FXR2 (stock 2.4 mM) in serial twofold dilutions from 1/2 to 1/1024; 20 mM Tris-Cl pH 8.0, 50 mM NaCl, 1 mM DTT; room temperature, 30 minutes; conditions: both partners purified
T1 construct: Fragile X Mental Retardation Syndrome-related Protein 1 (FXR1), amino acids 2 to 132, tandem Tudor domains; residues 4 to 122 seen in the crystal structure; Cloned in pET-28a-MHL as His6-TEV-FXR1; The methods describe expression in minimal media with selenomethionine; also called FXR1 Tudor domains; NLS of FXR1; source: E. coli BL21 derivative with pRARE, purified (Ni-NTA, Superdex 75); not …
T1 sequence (P51114 2-132): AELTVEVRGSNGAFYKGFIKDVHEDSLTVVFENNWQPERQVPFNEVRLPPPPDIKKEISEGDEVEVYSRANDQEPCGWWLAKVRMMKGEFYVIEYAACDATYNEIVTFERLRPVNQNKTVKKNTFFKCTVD

[4] = target: T2, FXR2 tandem Tudor domains (amino acids 14 to 137 of Fragile X Mental Retardation Syndrome-related Protein 2) (UniProt P51116 14-137); assay: as above; conditions: both partners purified
T2 construct: Fragile X Mental Retardation Syndrome-related Protein 2 (FXR2), amino acids 14 to 137, tandem Tudor domains; residues 13 to 136 reported for the crystal structure; Cloned in pET-28a-MHL as His6-TEV-FXR2; the purification tag was not removed from FXR2; The methods describe expression in minimal media with selenomethionine; also called FXR2 Tudor domain; NLS of FXR2; source: E. coli BL21 derivative …
T2 sequence (P51116 14-137): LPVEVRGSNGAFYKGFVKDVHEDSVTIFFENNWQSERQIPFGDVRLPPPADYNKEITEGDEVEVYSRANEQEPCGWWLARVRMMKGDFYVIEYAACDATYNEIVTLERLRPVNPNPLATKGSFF

C[C@H](N)C(=O)N[C@@H](CCCNC(=N)N)C(=O)N[C@H](C(=O)N[C@@H](CCCC[N+](C)(C)C)C(=O)N[C@@H](CCC(N)=O)C(=O)N[C@H](C(=O)N[C@@H](C)C(=O)N[C@@H](CCCNC(=N)N)C(=O)N[C@@H](CCCCN)C(=O)N[C@@H](CO)C(=O)N[C@H](C(=O)O)[C@@H](C)O)[C@@H](C)O)[C@@H](C)O [H3K4me3]
Kd [1]: > 1 mM

CC(C)C[C@H](NC(=O)[C@@H](NC(=O)[C@H](CCCCN)NC(=O)[C@H](CCCNC(=N)N)NC(=O)[C@H](Cc1c[nH]cn1)NC(=O)[C@H](CCCNC(=N)N)NC(=O)[C@H](CCCCN)NC(=O)[C@H](C)NC(=O)CNC(=O)CN)C(C)C)C(=O)N[C@@H](CCCNC(=N)N)C(=O)N[C@@H](CC(=O)O)C(=O)N[C@@H](CC(N)=O)C(=O)O [H4K20]
Kd [2]: > 1 mM

B1: H3K4me3 peptide (peptide)
peptide: ARTK(Me3)QTARKST
modifications: also: fluorescein, position not given here
notes: histone H3 tail peptide, K4 trimethylated; source: synthetic peptide (Tufts University Core Services)
Kd [3]: 660 ± 121 µM

B2: H4K20me2 peptide (peptide)
peptide: GGAKRHRK(Me2)VLRD
notes: histone H4 tail peptide, K20 dimethylated; source: synthetic peptide (Tufts University Core Services)
Kd [4]: 633 ± 30 µM

B3: H4K20me3 peptide, fluoresceinated (peptide)
peptide: GGAKRHRK(Me3)VLRD
modifications: also: fluorescein, position not given here
notes: histone H4 tail peptide, K20 trimethylated; source: synthetic peptide (Tufts University Core Services)
Kd [4]: 448 ± 19 µM
Kd [3]: 692 ± 113 µM

B4: H4K20 peptide (unmethylated histone H4 peptide) (peptide)
peptide: GGAKRHRKVLRDN
modifications: also: fluorescein, position not given here
notes: histone H4 tail peptide around K20, unmethylated; also called H4K20Me0; source: synthetic peptide (Tufts University Core Services)
Kd [4]: 1060 ± 63 µM
